{
  "source": "patent US20180125973A1",
  "about": "(AstraZeneca / MedImmune, published 2018)",
  "binders": {"B1": {"name": "MEDI9447 (antibody, human IgG1, lambda, V domains shown)", "VH": "EVQLLESGGGLVQPGGSLRLSCAASGFTFSSYAYSWVRQAPGKGLEWVSAISGSGGRTYYADSVKGRFTISRDNSKNTLYLQMNSLRAEDTAVYYCARLGYGRVDEWGRGTLVTVSS", "VL": "QSVLTQPPSASGTPGQRVTISCSGSLSNIGRNPVNWYQQLPGTAPKLLIYLDNLRLSGVPDRFSGSKSGTSASLAISGLQSEDEADYYCATWDDSHPGWTFGGGTKLTVLG"}},
  "key": {"Human CD73 on cells": {"target": "T1, Human CD73 on cells (human, UniProt P21589 27-549)", "T1 sequence": "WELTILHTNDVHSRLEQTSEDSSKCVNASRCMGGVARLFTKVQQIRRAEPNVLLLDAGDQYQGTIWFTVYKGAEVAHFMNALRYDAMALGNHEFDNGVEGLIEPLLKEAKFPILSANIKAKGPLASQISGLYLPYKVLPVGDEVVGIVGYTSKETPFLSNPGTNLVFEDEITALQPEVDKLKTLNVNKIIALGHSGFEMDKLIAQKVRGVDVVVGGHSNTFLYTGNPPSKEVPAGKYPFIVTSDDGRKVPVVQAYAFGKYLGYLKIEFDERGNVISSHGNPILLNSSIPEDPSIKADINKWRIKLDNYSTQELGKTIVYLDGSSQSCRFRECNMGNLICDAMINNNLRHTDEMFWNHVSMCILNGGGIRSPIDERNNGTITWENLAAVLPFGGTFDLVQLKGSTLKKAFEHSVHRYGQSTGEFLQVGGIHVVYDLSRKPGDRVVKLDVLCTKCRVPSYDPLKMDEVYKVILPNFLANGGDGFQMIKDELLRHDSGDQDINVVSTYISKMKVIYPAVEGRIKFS", "test": "cell-based or functional assay"}, "Murine CD73 on cells": {"target": "T2, Murine CD73 on cells (murine, UniProt Q61503 29-551)", "T2 sequence (looked up)": "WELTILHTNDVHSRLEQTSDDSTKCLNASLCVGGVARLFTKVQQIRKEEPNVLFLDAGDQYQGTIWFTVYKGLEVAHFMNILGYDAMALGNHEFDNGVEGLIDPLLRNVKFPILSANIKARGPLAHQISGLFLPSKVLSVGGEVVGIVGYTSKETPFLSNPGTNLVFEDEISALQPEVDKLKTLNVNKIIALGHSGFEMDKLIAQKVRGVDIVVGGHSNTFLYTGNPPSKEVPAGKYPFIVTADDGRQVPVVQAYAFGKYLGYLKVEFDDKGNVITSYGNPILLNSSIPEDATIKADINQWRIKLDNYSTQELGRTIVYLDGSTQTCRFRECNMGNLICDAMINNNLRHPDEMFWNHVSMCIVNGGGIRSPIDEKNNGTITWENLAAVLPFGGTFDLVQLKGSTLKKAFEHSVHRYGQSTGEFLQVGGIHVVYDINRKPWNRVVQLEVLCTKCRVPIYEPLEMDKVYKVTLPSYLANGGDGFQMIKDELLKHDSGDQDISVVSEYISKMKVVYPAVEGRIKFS", "test": "cell-based or functional assay"}},
  "data": [
    {"binder": "B1", "values": [
      {"measurement": "Antibody-mediated internalization of cytotoxic FabZAP reagent into MDA-MB-231 cells, EC50", "setting": "Human CD73 on cells", "value": 0.0035, "unit": "nM"},
      {"measurement": "Antibody-mediated internalization of cytotoxic FabZAP reagent into 4T1 cells, EC50", "setting": "Murine CD73 on cells", "value": 0.0185, "unit": "nM"}
    ]}
  ]
}
